Test system: Escherichia coli TOP10
Assay: shrunken log2 fold change of peptide-encoding DNA abundance (4.5 h post-induction vs induction); higher = less antimicrobial activity (less host growth inhibition)
Conditions: time post-induction: 4.5 h; library: site-saturation at positions 5, 18, 19, 20
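Note: peptides expressed intracellularly from a pBAD plasmid library in pooled LB shake-flask culture, induced with 0.3% L-arabinose, DNA abundance read by NGS, three biological replicates, DESeq2 with apeglm shrinkage.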

Row | Sequence | shrunken log2 fold change
1 | RRIRGRPPRLPRPRPRPPCKPRP | 0.339
2 | RRIRERPPRLPRPRPRPYYKPRP | -0.231
3 | RRIRNRPPRLPRPRPRPFNHPRP | -1.02
4 | RRIRQRPPRLPRPRPRPGMYPRP | -0.35
5 | RRIRARPPRLPRPRPRPGLRPRP | 0.331
6 | RRIRLRPPRLPRPRPRPTKIPRP | 0.0747
7 | RRIRNRPPRLPRPRPRPVMVPRP | -0.0209
8 | RRIRMRPPRLPRPRPRPMYIPRP | -0.0178
9 | RRIRDRPPRLPRPRPRPKMGPRP | -0.0622
10 | RRIRERPPRLPRPRPRPAFKPRP | 0.106
11 | RRIRMRPPRLPRPRPRPVQEPRP | 0.051
12 | RRIRKRPPRLPRPRPRPILKPRP | 0.117
13 | RRIRYRPPRLPRPRPRPATLPRP | -0.307
14 | RRIRARPPRLPRPRPRPQRMPRP | 0.0748
15 | RRIRHRPPRLPRPRPRPKYTPRP | 0.973
16 | RRIRARPPRLPRPRPRPVQEPRP | 0.509
17 | RRIRPRPPRLPRPRPRPDCSPRP | 0.152
18 | RRIRYRPPRLPRPRPRPKYAPRP | -0.532
19 | RRIRARPPRLPRPRPRPVMYPRP | 0.0749
20 | RRIRIRPPRLPRPRPRPFGKPRP | -0.0569
21 | RRIRCRPPRLPRPRPRPDIRPRP | 0.121
22 | RRIRLRPPRLPRPRPRPITWPRP | -0.543
23 | RRIRMRPPRLPRPRPRPKHGPRP | 0.742
24 | RRIRHRPPRLPRPRPRPESRPRP | -0.17
25 | RRIRWRPPRLPRPRPRPYCHPRP | -0.437

Row | Sequence | shrunken log2 fold change
26 | RRIRVRPPRLPRPRPRPVFWPRP | 0.378
27 | RRIRNRPPRLPRPRPRPEVAPRP | 0.418
28 | RRIRIRPPRLPRPRPRPNCFPRP | 0.00306
29 | RRIRLRPPRLPRPRPRPDQNPRP | -0.0565
30 | RRIRKRPPRLPRPRPRPRCSPRP | 0.305
31 | RRIRFRPPRLPRPRPRPTNMPRP | -0.712
32 | RRIRVRPPRLPRPRPRPKPYPRP | 0.0131
33 | RRIRPRPPRLPRPRPRPLPHPRP | -0.206
34 | RRIRMRPPRLPRPRPRPFYQPRP | -0.297
35 | RRIRLRPPRLPRPRPRPQYAPRP | -0.0369
36 | RRIRLRPPRLPRPRPRPAFSPRP | 0.106
37 | RRIRPRPPRLPRPRPRPSFWPRP | 0.129
38 | RRIRARPPRLPRPRPRPARGPRP | 0.774
39 | RRIRHRPPRLPRPRPRPFGRPRP | -0.0135
40 | RRIRLRPPRLPRPRPRPMRTPRP | 0.3
41 | RRIRKRPPRLPRPRPRPWCGPRP | 0.153
42 | RRIRMRPPRLPRPRPRPCAWPRP | 0.513
43 | RRIRTRPPRLPRPRPRPNSQPRP | -0.00223
44 | RRIRMRPPRLPRPRPRPGSYPRP | 0.124
45 | RRIRARPPRLPRPRPRPENHPRP | -0.102
46 | RRIRFRPPRLPRPRPRPHQTPRP | 0.0857
47 | RRIRSRPPRLPRPRPRPDGSPRP | -0.0196
48 | RRIRWRPPRLPRPRPRPCVFPRP | 0.309
49 | RRIRCRPPRLPRPRPRPKDYPRP | -0.644
50 | RRIRSRPPRLPRPRPRPRSHPRP | -0.203

Row | Sequence | shrunken log2 fold change
51 | RRIRWRPPRLPRPRPRPMTVPRP | -0.0472
52 | RRIRSRPPRLPRPRPRPMSTPRP | -0.13
53 | RRIRCRPPRLPRPRPRPDQQPRP | 0.0369
54 | RRIRRRPPRLPRPRPRPDKWPRP | 0.107
55 | RRIRLRPPRLPRPRPRPGTMPRP | -0.0422
56 | RRIRHRPPRLPRPRPRPRVWPRP | 0.534
57 | RRIRARPPRLPRPRPRPCIFPRP | 0.131
58 | RRIRQRPPRLPRPRPRPQCKPRP | -0.102
59 | RRIRVRPPRLPRPRPRPGKAPRP | -0.00584
60 | RRIRMRPPRLPRPRPRPGFGPRP | 0.904
61 | RRIRGRPPRLPRPRPRPNEMPRP | 0.703
62 | RRIRHRPPRLPRPRPRPKQRPRP | 0.41
63 | RRIRKRPPRLPRPRPRPPWMPRP | 0.48
64 | RRIRCRPPRLPRPRPRPRPYPRP | -0.0927
65 | RRIRLRPPRLPRPRPRPNIQPRP | -0.689
66 | RRIRRRPPRLPRPRPRPGYNPRP | -0.27
67 | RRIRVRPPRLPRPRPRPAYMPRP | -0.271
68 | RRIRDRPPRLPRPRPRPPCWPRP | 0.407
69 | RRIRGRPPRLPRPRPRPLSWPRP | 0.781
70 | RRIRLRPPRLPRPRPRPMPNPRP | -0.0177
71 | RRIRVRPPRLPRPRPRPLLPPRP | 0.328
72 | RRIRIRPPRLPRPRPRPWFSPRP | -0.201
73 | RRIRIRPPRLPRPRPRPGSEPRP | -0.187
74 | RRIRSRPPRLPRPRPRPPYTPRP | -0.395
75 | RRIRERPPRLPRPRPRPYNIPRP | -0.184
